Reference: PMC8316464

Experiments:
Experiment in all cases: SPR; Biacore S200; Bcl-2 family proteins immobilised on CM5 (amine coupling or His-Capture Kit); peptides and flag-tagged proteins as analytes, single-cycle kinetics, HBS-EP, 25 °C; 1:1 Langmuir model; absence of binding probed at 100 nM and 3 µM
[1] = biological target: Bcl-2 (human) (UniProt P10415)
[2] = biological target: Bcl-xL (human) (UniProt Q07817)
[3] = biological target: His-tagged human Mcl-1 (human) (UniProt Q07820)
Chain of His-tagged human Mcl-1 (human) (Q07820 whole entry): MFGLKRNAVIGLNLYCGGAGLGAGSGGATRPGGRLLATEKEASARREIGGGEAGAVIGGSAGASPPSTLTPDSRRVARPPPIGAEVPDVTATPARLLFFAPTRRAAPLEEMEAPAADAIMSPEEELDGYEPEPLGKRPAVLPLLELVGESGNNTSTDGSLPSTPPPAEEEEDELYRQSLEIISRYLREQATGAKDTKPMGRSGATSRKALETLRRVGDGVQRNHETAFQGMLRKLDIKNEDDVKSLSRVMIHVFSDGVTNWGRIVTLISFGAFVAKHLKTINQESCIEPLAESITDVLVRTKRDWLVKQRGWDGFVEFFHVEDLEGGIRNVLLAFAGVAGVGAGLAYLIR

Chain of Bcl-xL (human) (Q07817 whole entry): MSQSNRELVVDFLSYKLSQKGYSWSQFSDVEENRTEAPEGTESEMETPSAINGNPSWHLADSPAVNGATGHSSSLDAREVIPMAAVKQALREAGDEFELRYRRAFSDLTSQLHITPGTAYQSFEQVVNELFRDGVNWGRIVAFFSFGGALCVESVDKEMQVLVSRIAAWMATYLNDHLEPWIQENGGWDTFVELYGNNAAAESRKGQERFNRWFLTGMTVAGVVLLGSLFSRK

Row | Kd [1] [nM] | Kd [2] [nM] | Kd [3] [nM] | Binder
1 | 96.7 | 7.12 | 12.8 | ESQEDIIRNIARHLAQVGDSMDRSI [Bid BH3 peptide (25-mer, residues 77-101)]
2 | 158 | 28.5 | – | ESQEDIIRNIIRHLAQVGDSMDRSI [Bid (A87I) peptide]
